{
  "source": "patent US6277383A",
  "about": "“Ryegrass pollen allergen” (University of Melbourne, priority 1995, dated 2001)",
  "molecules": {"B1": {"name": "Clone 12: 1.2 kb cDNA clone lambda-12R; its expressed protein is designated Lol p Ib.1 (protein)", "chain": "MAVQKYTVALFLAVALVAGPAASYAADAGYTPAAAATPATPAATPAAAGGKATTDEQKLLEDVNAGFKAAVAAAANAPPADKFKIFEAAFSESSKGLLATSAAKAPGLIPKLDTAYDVAYKAAEGATPEAKYDAFVTALTEALRVIAGALEVHAVKPATEEVPAAKIPTGELQIVDKIDAAFKIAATAANAAPTNDKFTVFESAFNKALNECTGGAYETYKFIPSLEAAVKQAYAATVAAAPEVKYAVFEAALTKAITAMTQAQKAGKPAAAAATGAATVATGAATAAAGAATAAAGGYKA"}},
  "test_system": "MAbs 3.2, 12.3, 21.3 and 40.1",
  "assay": "Recognition of cloned allergen 12R by MAbs (FIG. 1a)",
  "format": "binding",
  "conditions": "MAbs 3.2, 12.3, 21.3, 40.1",
  "protocol": "Poly (A+) mRNA isolated from mature rye grass pollen by the phenol method (Herrin and Michaels, (1984) Plant Mol. Biol. Rep., 2:24-28) was used to construct a cDNA library in the vector lambda-gt 11. The library was then screened with antibody probes to detect sequences expressing Group I proteins. E. coli Y1090 transfected with 3×10^4 recombinant phages were plated and incubated at 42° C. for 3 h. The plates were overlaid with a dry 132 mm nitrocellulose (NC) filter previously soaked in 10 mm IPTG and transferred to 37° C. After incubation for 3 h the filters were carefully peeled off and incubated in 20 ml per filter of MTBS (10% w/v non-fat milk powder, 50 mm Tris-HCI, pH 7.6, 150 mM Nacl) for 30 min. at room temperature. A second set of NC filters was placed on phage plates and after incubating for 3 h were treated as above. Both sets of NC filters were tested for binding of MAb 40.1 to plaques by the method described in Huynh et al. (1985) In: DNA Cloning, a practical approach, Glover, D. M. (ed.) Vol. 1, pp. 49-78, IRL Press, Oxford, England. The antibody positive plaques were picked, purified, then replated and tested for binding to probes. The positive clones were plaque-purified and tested for IgE binding using sera from grass pollen-allergic subjects. Eighteen clones were selected as encoding proteins recognized by both Lol p I-specific MAbs and IgE antibodies (Table 1). […]",
  "data": [
    {"molecule": "B1", "values": [
      {"measurement": "Recognition by all four MAbs used in this study", "value": "recognized"}
    ]}
  ]
}
